Legend:
Assay in all cases: biochemical
Format in all cases: biochemical
266 human kinases [1] = molecular target: T1, 266 human kinases (Homo sapiens, UniProt Q8N568); settings: DCAMKL2(h); 100 μM
T1 sequence (Q8N568 1-766): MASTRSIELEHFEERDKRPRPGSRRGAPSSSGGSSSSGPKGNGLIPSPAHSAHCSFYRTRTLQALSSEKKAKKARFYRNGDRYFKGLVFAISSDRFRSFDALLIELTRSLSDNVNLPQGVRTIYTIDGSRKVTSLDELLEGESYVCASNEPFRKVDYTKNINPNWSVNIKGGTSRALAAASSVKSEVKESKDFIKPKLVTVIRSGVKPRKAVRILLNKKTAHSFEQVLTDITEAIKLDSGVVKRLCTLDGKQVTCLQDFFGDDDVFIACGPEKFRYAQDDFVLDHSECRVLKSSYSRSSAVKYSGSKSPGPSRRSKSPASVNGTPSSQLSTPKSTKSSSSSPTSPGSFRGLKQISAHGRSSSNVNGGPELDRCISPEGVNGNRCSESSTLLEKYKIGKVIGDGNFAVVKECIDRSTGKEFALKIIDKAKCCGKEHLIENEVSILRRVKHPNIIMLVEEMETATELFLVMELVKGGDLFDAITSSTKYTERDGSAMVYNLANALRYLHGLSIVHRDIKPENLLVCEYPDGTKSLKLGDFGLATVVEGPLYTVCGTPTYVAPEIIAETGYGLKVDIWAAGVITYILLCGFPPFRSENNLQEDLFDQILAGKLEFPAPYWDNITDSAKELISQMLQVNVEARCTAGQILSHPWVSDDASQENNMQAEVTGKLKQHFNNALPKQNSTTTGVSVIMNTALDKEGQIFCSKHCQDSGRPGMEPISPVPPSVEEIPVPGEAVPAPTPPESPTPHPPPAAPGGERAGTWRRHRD
Summary of the method: (§1)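 Kinase phosphorylates cationic substrate with radiolabelled ATP phosphate; substrate retained on anionic filter membrane; scintillation count; % of 100% activity control.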

266 human kinases [2] = molecular target: T2, 266 human kinases (Homo sapiens, UniProt Q12866); settings: Mer(h); 100 μM
T2 sequence (Q12866 21-999): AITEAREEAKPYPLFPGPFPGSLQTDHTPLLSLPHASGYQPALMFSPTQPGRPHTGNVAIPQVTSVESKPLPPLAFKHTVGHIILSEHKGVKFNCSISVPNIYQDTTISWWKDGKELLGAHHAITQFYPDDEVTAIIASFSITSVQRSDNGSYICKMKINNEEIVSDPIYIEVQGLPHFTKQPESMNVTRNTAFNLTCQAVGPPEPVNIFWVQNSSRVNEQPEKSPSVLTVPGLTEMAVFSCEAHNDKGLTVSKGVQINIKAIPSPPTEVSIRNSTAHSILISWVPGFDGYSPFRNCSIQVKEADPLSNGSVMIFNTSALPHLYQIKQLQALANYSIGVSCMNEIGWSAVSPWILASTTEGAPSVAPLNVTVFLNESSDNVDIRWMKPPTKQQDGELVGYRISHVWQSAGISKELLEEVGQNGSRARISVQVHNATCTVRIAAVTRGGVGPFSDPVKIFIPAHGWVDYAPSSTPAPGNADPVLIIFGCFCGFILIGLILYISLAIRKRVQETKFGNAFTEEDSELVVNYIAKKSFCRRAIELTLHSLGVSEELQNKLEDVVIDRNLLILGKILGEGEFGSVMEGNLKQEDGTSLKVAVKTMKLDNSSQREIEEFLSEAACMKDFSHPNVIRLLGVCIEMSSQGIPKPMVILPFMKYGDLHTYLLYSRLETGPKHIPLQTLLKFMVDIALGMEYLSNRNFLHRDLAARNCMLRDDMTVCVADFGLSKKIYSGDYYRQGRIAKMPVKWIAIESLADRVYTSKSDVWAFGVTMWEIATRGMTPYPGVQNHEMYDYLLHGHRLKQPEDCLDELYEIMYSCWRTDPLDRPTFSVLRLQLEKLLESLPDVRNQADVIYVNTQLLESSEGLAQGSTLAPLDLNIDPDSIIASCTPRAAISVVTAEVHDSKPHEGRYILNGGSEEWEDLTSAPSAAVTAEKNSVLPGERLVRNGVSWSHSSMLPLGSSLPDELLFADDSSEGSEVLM
Summary of the method: as §1

266 human kinases [3] = molecular target: 266 human kinases (Homo sapiens, UniProt Q13882); settings: BRK(h); 100 μM
Summary of the method: as §1

266 human kinases [4] = molecular target: 266 human kinases (Homo sapiens, UniProt P30530); settings: Axl(h); 100 μM
Summary of the method: as §1

266 human kinases [5] = molecular target: T3, 266 human kinases (Homo sapiens, UniProt P54762); settings: EphB1(h); 100 μM
T3 sequence (P54762 18-984): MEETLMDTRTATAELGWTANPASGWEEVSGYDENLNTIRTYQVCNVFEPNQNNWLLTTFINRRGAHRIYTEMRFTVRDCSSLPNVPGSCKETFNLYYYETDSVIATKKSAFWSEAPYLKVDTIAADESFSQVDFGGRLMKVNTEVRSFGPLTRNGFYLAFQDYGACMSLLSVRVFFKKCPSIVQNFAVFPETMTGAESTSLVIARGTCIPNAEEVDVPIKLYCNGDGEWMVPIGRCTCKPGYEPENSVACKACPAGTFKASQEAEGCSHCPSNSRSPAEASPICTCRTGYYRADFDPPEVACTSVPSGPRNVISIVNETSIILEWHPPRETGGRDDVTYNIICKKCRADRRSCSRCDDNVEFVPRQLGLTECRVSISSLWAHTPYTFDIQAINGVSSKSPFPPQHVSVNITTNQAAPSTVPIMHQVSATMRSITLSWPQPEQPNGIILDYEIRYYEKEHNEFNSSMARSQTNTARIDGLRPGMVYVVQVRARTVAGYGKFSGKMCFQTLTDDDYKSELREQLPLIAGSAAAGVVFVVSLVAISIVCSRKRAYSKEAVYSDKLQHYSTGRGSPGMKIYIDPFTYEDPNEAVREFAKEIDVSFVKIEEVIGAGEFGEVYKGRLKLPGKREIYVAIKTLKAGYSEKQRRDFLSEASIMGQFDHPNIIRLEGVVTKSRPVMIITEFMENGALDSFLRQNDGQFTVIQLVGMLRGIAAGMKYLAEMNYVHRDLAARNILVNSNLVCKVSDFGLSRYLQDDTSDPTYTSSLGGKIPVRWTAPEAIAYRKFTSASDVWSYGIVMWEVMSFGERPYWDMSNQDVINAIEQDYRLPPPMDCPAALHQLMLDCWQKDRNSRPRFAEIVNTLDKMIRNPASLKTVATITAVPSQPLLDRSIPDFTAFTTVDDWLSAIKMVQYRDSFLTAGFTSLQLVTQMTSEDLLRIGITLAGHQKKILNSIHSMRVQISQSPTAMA
Summary of the method: as §1

Chain of 266 human kinases (Homo sapiens, UniProt Q13882) (Q13882 whole entry): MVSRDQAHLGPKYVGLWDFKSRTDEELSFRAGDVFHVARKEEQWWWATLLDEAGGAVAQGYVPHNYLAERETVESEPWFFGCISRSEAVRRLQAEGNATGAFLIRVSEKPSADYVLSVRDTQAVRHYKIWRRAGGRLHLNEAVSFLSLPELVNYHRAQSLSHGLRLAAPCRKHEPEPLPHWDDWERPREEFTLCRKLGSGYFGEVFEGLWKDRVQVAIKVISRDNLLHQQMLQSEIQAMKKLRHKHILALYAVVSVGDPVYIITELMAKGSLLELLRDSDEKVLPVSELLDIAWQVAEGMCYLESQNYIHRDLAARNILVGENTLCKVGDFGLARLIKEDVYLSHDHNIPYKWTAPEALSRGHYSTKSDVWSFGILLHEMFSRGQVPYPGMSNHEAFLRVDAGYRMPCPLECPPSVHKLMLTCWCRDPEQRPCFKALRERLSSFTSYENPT

## HRRIKAWLKKIKALARQLGVAA (mammal) [MMI-0500]
266 human kinases [1]
  % activity: 56%
266 human kinases [2]
  % activity: 17%
266 human kinases [3]
  % activity: 41%
266 human kinases [4]
  % activity: 12%
266 human kinases [5]
  % activity: 37%

## YARAAARQARAKALNRQLGVA (mammal) [MMI-0200]
266 human kinases [1]
  % activity: 131%
266 human kinases [2]
  % activity: 90%
266 human kinases [3]
  % activity: 127%
266 human kinases [4]
  % activity: 99%
266 human kinases [5]
  % activity: 95%
